In the test the target is recombinant lamprey tumor necrosis factor receptor (rL-TNFR) (lamprey). Description: SPR. (Surface plasmon resonance follows binding to a sensor surface in real time, without labels.)

B1: recombinant Lr-PGRN-S1 (Lethenteron reissneri short-form progranulin S1) (natural protein)
chain: MGAVFSLGLSKEAIAMALPRPLMFVLVAAGLCALVSADRCPDGRFCVSRCCWKFTQYTCCWAGEGEGQGETQGELATVPAQAISATVSKVSSCAGSVCSANGESRCCPLSEGSCCGDGLSCCGKGSTCTTFRGLNLCLPHAEFQDPVATFLSREQQQHQQGGCVDDSGCPAGSECHVASGDHRGQCVSSDALIPWVEKEAALSGAVGAQVVYCGSGQYCRDGQTCCRLATGSWGCCNIPHAICCSDGIHCCPTGHFCLTASGLCARSTLSLPAVEGV
For orientation: Kd means the equilibrium constant for the complex coming apart. Turning to B1, the Kd was determined as 337 nM.

Source of the values: article PMC9338584 (2022).
